Test results from the nanobody polyreactivity screen of Harvey et al. (2022).

Experiment: yeast display, Sf9 membrane polyspecificity reagent, FACS + sequencing; frameworks hold sequencing errors
Procedure, shortened: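 In a synthetic yeast display library (Saccharomyces cerevisiae BJ5465), nanobody expression was induced with galactose for 36–48 hours. FACS gates were set low and high (top ~1%) using anti-HA fluorescence for expression and streptavidin fluorescence for binding of the Sf9 membrane reagent. Each polyreactivity label is drawn from the gate of origin.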

Sequence	polyreactivity (PSR sort gate)
QVQLVESGGGLVKAGGSLRLTCAASGRTFGDNAMVWYRQATGKEMELVAAIRWGGGSTYYADSVKGRFTISRDNAKNTVFLQMNRLKPEDTAVYYCAKDDWDIALVHGEYDYWGQGTQVTVSS	low polyreactivity
QVQLVESRGGLVQEGGSLRLSCAASGRIFSVYAMGSYRQEPGKERELVASISSGGSTYYADSVMWRFTISRDNAKNTVYLQRTSQKAEDTAVYYCAAGYWTTFRSIYDYWGQGTQVTVSS	low polyreactivity
QVQLVETGGGLVQAGGSLRLSCAPSGRIFTYYGMGWYRQPPGKERELVAAITRSGGSTRYADSVKGRFTISRDNAKNTVYLQMNSLKPEDTAVYYCNAGGYWRYDYWGQGTQVTVSS	high polyreactivity
QVQLVESGGGLVQAGGSLRLSCAASGRTFSKNAMGWYRQAPGKERELVADISRRGGRTYYADSVNGRFTISRDNAKNTVYLQMNSLKPEDTAVYYCAARTYRQPYYILDYYWGQGTQVTVSS	high polyreactivity
QVQLVESGGGLVQAGGSLRLSCAASGSNFVKYVMGWSRQAPGKERELVAAITWRGGRTYYADSVKGRFTISRDNEKNTVYLQMNSLKPEDTAVYYCAAYDQSLYGRRYDYWGQGTQVTVST	high polyreactivity
QVQLVESGGGLVQAGGSLRLSCAASGSIFTNAMGWYRQAPGKERELVAAISSSGGSTYYADSVKGRFTISRDNAKNTVYLQMNSLKPDDTAVYYCAADHYGCRDFWGQGSQVTVSS	low polyreactivity
QVQLVESGGGLVQAGGSLRISCAASGRTFLSYGMGWYRQAPGKERELVATIDDSGSTYYADSVKGRFTISRDNAKNTVYLQMNSLKPEDTAVYYCATDRQVFYWDFWYIEYDYGGQGTQVTVSS	high polyreactivity
QVQLVESGGGLVQAGGSLRLSCAASGSIIGTNVMGWYRQPPGKERELVPSISYRDGTTYYADSVKGRFTISRDNAKNTVYLQMNSLKPEDTAVYYFAVANYYSYYWGQGTQVTVSS	low polyreactivity
QVQLVESGGGLVQAGGSLRLSCAASGSTFGKYAMGWYRQAPGKERELVARIDSGDRTRYADSVKGRFTISRDNAKNTVYLQMNSLKPEDTAVYYCAARYVGARNAYRMGYWGQGTQVTVSS	high polyreactivity
QVQLVESGGGLVQAGGSLRLSCAASGRIFRYYAKGWYRQAPGKERELVARIRWSGGSTYYADSVKGRFTISRDNAKNTVYLQMNSLKPEDTAVYYCNAGSWSYRYNYWGQGTQVTVSS	high polyreactivity
QVQLVESGGGLVQAGGSLRLSCAASGITFYVNAMGWYRKAPGKERELVAGITLSGDSTYYADSVKGRFTISRDNAKNTVYLQMNSLKPEDTAVYYCAVEGGLWWPYTYYYWGQGTQVTVSS	high polyreactivity
QVKHVESGGGLVQAGGSLRLTCAASGSIFYRNAMGWYRQAPGKERELVAGISRRGGSTYYADSVKGRFTMSRDNAKNTVYLQMNSLKPEDTAGYYCAADFAWVRLTYGYCGQGTQVTVSS	low polyreactivity
QVQLVESGVGLVQAGGSLRLRCAASGSILGGNAMGWYRQAPGKERELVAAITFSGGGTYYADSVKGRFTISRDNAKNTVYLQMNSRKPEDTAVYYCNAFAPDYYHVYPAEDYWGQGTQVTVSS	low polyreactivity
QVQLVESGGCLVQAGGSLRLSCAASGGTFVTYAMGWYRQAPGKERELVAAITTGGSTYYADSVKGRFTISRDNAKNTVYLQMNSLKPEDSAVYYCAAVYTGSGKRYYKGYYWGQGTQVTVSS	low polyreactivity
QVQLVESGGGLVQAGGSLRLSCAASGRIYDDNAMGWYRQAPGKERELVAAISSGDSTKYADSVKGRFTISRDNAKNTVYLQMNSLKPDDTAVYSCAAERNHGLVGSESVGRNDYWGPGTQVTVSS	low polyreactivity
QVQLVESGGGLVQAGGSLRLICAASGSILSINGMGWYRQAPGKERELVATIDGSDGSTFYADSVKGRFTISRDNAKNTVYLQMNSLKPEDTAVYYCAAENFWQTKEYDYWGQGTQVTVSS	low polyreactivity
QVQLVESGGGLVQAGGSRRLSCAASGRTFRNYAMGWYRQAPGKERELVAAINFSGDGTYYADSVKGRFTISRDNAKNTVYLQMNSLKPEDTAVYYCAADVEYYRDVPQQVYVSDDYWGQGTQVTVSS	low polyreactivity
QVQLVESGGGLVQAGGSLRLSCAASGFIFHEYAMGWSRQAPGKERELVAAISSGGGSTYYADSVKGRFTISRDNANNTVYLQMNSLKPEDTAVYYCAADATAYSVLTRDYWGQGTQVTVSS	high polyreactivity
QVQLVESGAGLVQAGGSLRLSCAASGRIFERYAMGWYRQAPGKERELVAAISVSGSGTYYADSVKGRFTISRDNAKNTVYLQMNSLKPEDTAVYYCAADASLLGLFQGYDYWGQGTQVTVSS	low polyreactivity
QVQLVESGGGLVQAGGSLRLSCAASGSTFTNYAMGWYRQAPGKERELVAAINSGGSTHYADSVKGRFTISRDNAKNTVYLQMNSLKPEDTAVYYCAADPSALVYYWRWLGYDYWGQGTQVTVSS	high polyreactivity
QVQLVESGGGLVQAGGSLRLSCAAYGHFFAIYAMGWYSQAPGKEREFVAAITFTTRTYYADSVKGRFTISRDNAKNTVYLQMNSLKPEDTAVYYCAAGGYGEEYDYWGQGTQVTVSS	low polyreactivity
QVQLVESGGGLVQAGGRLRLSCAASGRIFLPDGMGWYIQAAGKERELVATITIGGSSTYADSVKGRFTISRDNAKNTVNLQMNSLKPEHTAVYYCAVRRWVYYLHGYDYWGQGTQETVSS	low polyreactivity

Sequence	polyreactivity (PSR sort gate)
QVQLVESGGGLVQAGGSLRLSCAASGSTLYYNAMGWYRQAPGKERELVAAITSGGSTSYADSVKGRFTISRDNAKNTVYLQMNRLKPDDTAVYYCAAVFYRRFDYWGQGTQVTVSS	low polyreactivity
QVQLVESGGGLVQAGGSLSLSCAASGSILDRNTMGWYRQAPGKERELVAAITGSGSRTYYADSVKGRFTISRDNAKNTVYLQMNSLKPEDTAVYYCAAYTHSWTGDNYWGQGTQVTVSS	high polyreactivity
QVQLVESGGGLVQAGGSLRLSCAASGRIFEDYAMGWYRQAAGKERELVARISSGDSTNYADSVKGRFTISRDNAKNTVYLQMNSLKPVVTAVYYCAAEGGVQEFDYWGQGTQVTVSS	low polyreactivity
QVQLVESGGGLVQAGGSLRLSCAASGITISVNDMGWYRQAPGKERELVAAISSGDSTNYADSVKGRFTISRDNAKNTVYLQMNSLKPEDTAVYYCAALEGSLTGWQTYDYWGQGTQVSVSS	low polyreactivity
QVQLVESGGGLVQAGGSLRLSCAANGYIFLIYDRGWYRQSPGKEMELVAAISNSVGSTYADSVKGRFTISRDNAKNTDYLQMNSLKPEDTAVYYCNADSGPIDGRGGYWGQGTQVTVSS	low polyreactivity
QVQLVESGRGLDQAGGSLRLSCAASGSIIGANAMGWYRQAPGKERELVAAITDNTSTTFYADSVKGRFTISRDNAKNTVYLQMNSLKPEDTAVYYCNADRAVVLSTTVWGEYDYWGQGTQVTVSS	low polyreactivity
QVQLVESGGGLVQAGGSLRLSCAASGRTFHSYAMGWYRQAPGKERELVAAINNGGGTYYADSVKGRFTISRDNAKNTVYLQMNSLKPEDTAVYYCAADRYRYRYNAPRYAYDYWGQGTQVTVSS	high polyreactivity
QVQLVESGGGLVQAGGSLRLSCAASGFIFVRYGMGWYRQAPGKERELVAAITWNGGSTFYADSVKGRFTISRDNAKNTVYLQMNSLKPEDTAVYYCAAGYKYSYRSIYTHVDYWGQGTQVTVSS	low polyreactivity
QVQLVESGGGLVQAGGSLRLSCAASRLTFNTYTIGWYRQAPGKERELVAGRSKSGGRTYYADSVKGRFTISRDNAKITVYLQMNILKAEDTSVYYCSTRSTTDFYWGHGTQVTVSS	high polyreactivity
QVQLVESGGGLVQAGGSLRLSCAASGRILYNYAMGWYRQAPGKERELVAAISSGGSTNYADSVKGRFTISRDNAKNTVYLQMNSLKPEDTAVYYCAAYRGHSWRGLYRWSDYDYWGQGTQVTVSS	low polyreactivity
QVQLVESGGGLVQAGGSLRISCAASGFIFVFYDRGWYRQAPGKEREFVAGITRNDGSTYYADSVKGRFKISRDNAKNTVYLQMNSLKPEDTAVYYCAAADSTWFDWGNYWYYYWGQGTQVTVSS	low polyreactivity
QVQLVESGGGLVQAGGSLRLSCAASVSIFRVNTMGWYRQAPGKERELVATISSGARTNYADSVKGRFSISRDNAKNTVYLQMNSLKPEDTAVYYCATRYRRVYTWYDYWGQGTQVTVSS	high polyreactivity
QVQLVETGGGLVQAGGSLRLSCAASGSISGFIDMGWYRQAPGKERELVAAISYSGGRTYYADSVKGLFTISRDNAKNTVFLQMNSLKPEDTAVYYCAADKFIYSKYTVIRDDYWGQGTQVTVSS	high polyreactivity
QVQLVESGGGLVQAGGILRLSCAPYGSIFSQNAMGWYRQAPGKERELVAAISSSGTRTYYADSVKARFTISRDNAQNTVYLQMNSLKPEDTAVYYSNKVHFLPRYFLRSDYWGQGTQVTVSS	high polyreactivity
QVQLEESGGGLVQAGGSLRLSCAASGITLAHNAMGWYRQAAGKERELVASITESGGSTYYADSVKGRFTISRDNAKNTVYLQMNRLKPEDTAVYYCAVRPTVGYWTVYYWGQGTQVTVSS	high polyreactivity
QVQLVESGGGLVQAGGSLRLSCAASGSIFKYYAMGWYRQAPGKERELVAAITSGGSTSYADSVKGRFTISRDNAKNTVYLQMNSLKPEDTAVYYCAASGNSYRLRYWWSELDYWGQGTQVTVSS	high polyreactivity
QVQLVESGGGLVQAGGSLRLSCAASGFTFNVYAMGWYRQAPGKERELVARITRRGGSTYYADSVKGRFTISRDNAKNTVYLQMNSLKPEDTAVYYCNADSPVVSGRGGRRSAYLNDYWGQGTKVTVSS	high polyreactivity
QVQLVESGGGLVQAGGSLRLSCAASGSTFDRYAMGWYRQAPGKERELVAAISWSAGRTYYADTVKARFTISRDYAKNTVYLQMNSLKPEDTAVYYCAADQIVSGTYDYYWGQGTQVTVSS	low polyreactivity
QVQLVESGGGLVQAGGSLRLSCAASGRIIWINAMGWDRQAPGKERELVATITKRGGRTYYADSVKGRFTISRDNAKNTVYLQMNSLKPEDTAVYSCNTGHEARHSQYQGGVYQDMGYWGQGTQVTVSS	low polyreactivity
QVQLVESGGGLVQAGGSLRLSCAASGSTFVSYAMGWSRQAPGKERELVAAISISDSSTYYADSVKGRFTISRDNAKNTVFLQMNSLKPEDTAVYYCNRYDYWGQGTQVTVSS	low polyreactivity
QVQLVESGGGLVQAGGSFRLSCAASGSIFVVYDMGCYRQAPGKERELVAAITSGGSTYYADSVKGRFTISRDNAKNTVYLQMNSLKPEDTAVYYCAADSYEGYDYWGQGTQVTVSS	low polyreactivity
